# The DeepSol protein solubility set
# Assay: soluble on expression in E. coli; label from the status in PepcDB or PDB records
row,Sequence,soluble on expression in E. coli
1,MSLNQRTLFDKIWDEHVVDVGADGTTLLYVDRHFLHEVTSPQAFRGLQLAGRRPWRSDANLAMPDHNVPTKDRAAHLDDALARAQIEALDRNCAEFAVPLFRLSDPRQGIVHVSGPEQGASLPGSVIVCGDSHTSTHGALATIAHGIGTSEVEHVLATQTLLARKPARMRVNFHGVAGAGVSAKDMALAMIAKVGAAGAQGYAIEYAGEAVRCLSVEARMTLCNMSIEAGARCGMVAVDDKTIEYLRGRPMAPRGESWDLAVRTWRALVSDHDAQFDVEIEIDVGMLGPLVTWGTSPDMVISVDEKIPDPAAEKDGTRRAGMERALRYMDLAPGTPITDVRLDRIFIGSCTNSRLEDLRAAAEVIRGKHVAASIRQALVVPGSGLVKQQAENEGLHQLFIDAGFEWRDAGCSMCVGMNADHLLSGERCASTSNRNFEDRQGVGGRTHLVSPAMAAAAAIAGHFVDIRRSEGHHHHHH,not soluble
2,MEEQNANQMLTDILSFMKSGKRAAALEHHHHHH,soluble
3,MAHHHHHHMRPGRLDKTIVVPLPDIKGRYEILKMYSSKIVLSKDVDLHVLSRRTVGMTGADLNNILNIAAIKCSVEGKKAVDMNSIEQAFDRVVVGLQRKSPLNEEEKNITAYHEGGHTLVNFYTKGSDPVHKATIMPRGMSLGVTWKIPISDKYSQKIRDVQSEIDILMGGLVSEEIIFGKNNVTTGCSSDLQRATHIAQSLVMNYGVGINEENISMFLQDKKNISEEMKIKIDKSIQRILLDSYNRAKKVLNQHIDELHRVASALVEYETLTSDEIKLAMQGKHDQIRKNRELKQKEFNLKDSRIS,not soluble
4,ATDVIAQRKAILKQMGEATKPIAAMLKGEAKWDQAVVQKSLAAIADDSKKLPALFPADSKTGGDTAALPKIFEDKAKFDDLFAKLAAAATAAQGTIKDEASLKANIGGVLGNCKSCHDDFRAKKS,soluble
5,MAKILVFDEAARRALERGVNAVANAVKVTLGPRGRNVVLEKKFGSPTITKDGVTVAKEVELEDHLENIGAQLLKEVASKTNDVAGDGTTTATVLAQAIVREGLKNVAAGANPLALKRGIEKAVEAAVEKIKALAIPVEDRKAIEEVATISANDPEVGKLIADAMEKVGKEGIITVEESKSLETELKFVEGYQFDKGYISPYFVTNPETMEAVLEDAFILIVEKKVSNVRELLPILEQVAQTGKPLLIIAEDVEGEALATLVVNKLRGTLSVAAVKAPGFGDRRKEMLKDIAAVTGGTVISEELGFKLENATLSMLGRAERVRITKDETTIVGGKGKKEDIEARINGIKKELETTDSEYAREKLQERLAKLAGGVAVIRVGAATETELKEKKHRFEDALNATRAAVEEGIVPGGGVTLLRAISAVEELIKKLEGDEATGAKIVRRALEEPARQIAENAGYEGSVIVQQILAETKNPRYGFNAATGEFVDMVEAGIVDPAKVTRSALQNAASIGALILTTEAVVAEKPEKKESTPAFAGAGDMDF,soluble
6,MSLYKIITSDLDETLLRQDGSISSANVAAIAAASKRGVKFVPNTGRSFLSIQPLLKTLNLYQRPNEYVVSYNGGVVVENQDNRVIVSNEMPYEEAAKAFAIMSEFDVDIHIYTLDHLFIYRPRADDRAYLQTRGVTFTEMTGAFDQFRNAQIMKVIVMNPDVMVRQQVYAAIKAAFTEINCTYSSGIYMEVNHAGVDKGRAILDLGDKLGIKADEIMAIGDNANDLGMLTKVGLPVSVANGIDDVKQVAKFVTPHDYERGVADAIETFILEGHHHHHH,soluble
7,SSPGKPPRLVGGPMDASVEEEGVRRALDFAVGEYNKASNDMYHSRACQVVRARKQIVAGVNYFLDVELCRTTCTKTQPNLDNCPFHDQPHLKRKAFCSFQIYAVPWQGTMTLSKSTCQDA,soluble
8,MEFKNPGFTGLFVIGRKYFMTAENTEMTLHPKKLPPNAGKGRVKGVPNKTTSLLKESVIEAAKRAGSKYGKEGLISYLEKQALKCPAAYLALLGKVLPLQVTGEDGGAIKMIGRVEIAPLGHDNTTD,not soluble
9,MSLISEVVVTTRKNNRDNKAPIGVYFKDKKVIMHLFSGSHTYENLLTEDYFSVNVVPPIEIAKAVLDDEDDYLYYNDIPYLKSSYYAIFYKVIERKFVDREDKFGKNRLMILEGEEIKRIYLNNIPKPYNRADGLLVEIAVIYSRLANKNIKINEDDKKEMINDIRKYFSIIKKVGGREHKQLAEIMLRNLNLLEGHHHHHH,soluble
10,MENRKLAVLIDADNAQSSLIAELLAEVAKYGTAIVKRAYGDWTTTQLKGWKEVLHQYAISPIQQFAYTKGKNSTDSALIIDAMDLLYTGNFDGFCLVSSDSDFTRLATRLREGGLTVIGLGEQSKTPRPFIAACDKFVFTEILRPAPPAKPKPETAATADKPKARSSRTRAKAAPHKEKHPLQDMFTSAIEAVARDSGWAELSAVGSYLAKNDPSFDPRNWGHGRLSQMVKKLDFLTVQESRNGSKLHSEIRLRHDGEAAVAEPAAPVETPQPSPSEEAAPPPRKKRSPRKKISPAGLEHHHHHH,soluble
11,HEGVHRKPSLLAHPGPLVKSEETVILQCWSDVRFQHFLLHREGKFKDTLHLIGEHHDGVSKANFSIGPMMQDLAGTYRCYGSVTHSPYQLSAPSDPLDIVITGLYEKPSLSAQPGPTVLAGESVTLSCSSRSSYDMYHLSREGEAHERRFSAGPKVNGTFQADFPLGPATHGGTYRCFGSFRDSPYEWSNSSDPLLVSVTGNPSNSWPSPTEPSSETGNPRHLHAAAEQKLISEEDLNLDLVPRGSSSHHHHHHSSG,soluble
12,MSLTAIHRPTWVSVDLDAAAHNLQEIREWTKAKKVYAVLKADGYGLGAIPLAKAFQETASADALIVSNLDEALELRQADLTLPIWVLGAWDYSDLKLFIDHDIVITIPSLAWLQNLPDFEGTLKVSLAIDTGMTRIGFDKADEISAAKKIIDKNPQLDLFSVYTHFATADEAGEKSKAYFEEQLRRWQELTINQGFDPSLFSMANSATCIWHHDDPRISFAAIRPGQLISGVNVSNGELKMPPNLHLERIFSVCSEIADVRFVKKDQSLSYGASERMPEDGYVATLPFGYNDGWLRRMQKSSVIINGKRMPIIGRITMDQTMVKLDRKYPIGTRVTLIGKDGGEQITVEEVANYSHTIVDEIQTTLAPRIKRIYTGDLAEVIGANYGEGHHHHHH,soluble
13,MTDRLIIQGGKKLSGTLQVDGAKNSAVALIPAAILAESEVVLEGLPDISDVYTLYDILEELGGSVRYDNKTAIIDPTDMLSMPLPSGNVKKLRASYYLMGAMLGRFKKAVIGLPGGCYLGPRPIDQHIKGFEALGAKVTNEQGAIYLRADELKGARIYLDVVSVGATINIMLAAVRAKGKTVIENAAKEPEIIDVATLLTNMGAIIKGAGTDTIRITGVDHLHGCHHTIIPDRIEAGTFMVLAAASGKGIRIENVIPTHLEGIIAKLTEMGVPMDIEEDSIFIGEVENIKKVDIKTYAYPGFPTDLQQPLTALLTRAEGSSVITDTIYPSRFKHIAELERMGGKFKLEGRSAVISGPAKLQGSKVTATDLRAGAALVIAGLLAEGRTEIHGVEHIERGYSKIIEKLSAIGADITRSSTAETNI,not soluble
14,MEDLDAYRAACANRIRRLERYKKARSFCSLETDEPTSSSPSLSSNSDVSQENGSSTFDMIREKMFSLMENDMTLLKQLLQLGDQISEIKKERLRRTMSQNSLEYDEEDEKEDKFDSGFSASMSAVTNLYVDDERPQFFSRQNSVLRIPIPPRSSNRFGPRRVIRRPSDILPRQQTNNIRTLHVNSDDSDSSSSGSKTHSPSSSVYNASTLILPSKTTKNRSSNSSIDSGIRDEQLTPSPTFESVVI,not soluble
15,MAHHHHHHMGFWVFDRVADGFLFRGRRQLSRLHQRNAMLDANGMPLTGDLAAEATTWRSQHAFSGRCGLSVKRSPEPHDNRDEARRNGGGDVPHPEKMLPSYECIISRSPNDYRAWAVDFHLQSTSEDPHVLLSVAPYYAPLQSNFVEGGRSWHPPTTEEQEMYDKRMLETPLIWEEPMTLSLDCTNSGMFLWSEEWKIFGEKIADNCFSRRSQSRGGDDSVDQMGGVSGVREGPYEAFVRLSWRMMSAGENDMYGGEKRSLSDASVRNIIVGPCQGEMTVFLRTSSSDQEEGDVSVPRQINGTGNVGAHGGESVSSGVQVWKRAGGRAVLGDDIPNEIYFTPYVTLMDAGDEAILL,soluble
